# Data reported in US20110009597A1, “RECOMBINANT GANODERMA LUCIDIUM IMMUNOMODULATORY PROTEIN (rLZ-8) AND USES THEREOF” (priority 2008, published 2011).
# B1: Genlei ™ Scimax ™: Recombinant human granulocyte colony-stimulating factor injection (rhG-CSF) (protein, UniProt P09919 31-207, looked up)
# Granulocyte …: TPLGPASSLPQSFLLKCLEQVRKIQGDGAALQEKLVSECATYKLCHPEELVLLGHSLGIPWAPLSSCPSQALQLAGCLSQLHSGLFLYQGLLQALEGISPELGPTLDTLQLDVADFATTIWQQMEELGMAPALQPTQGAMPAFASAFQRRAGGVLVASHLQSFLEVSYRVLRHLAQP
# Columns and labels:
# [1] = test system: HL-60; assay: Annexin V-FITC flow cytometry, apoptosis of HL-60; assay type: cell-based; details: HL-60, positive drug group, 24 h, Annexin V/PI
# Experimental: (§1) FACS Calibur flow cytometry, U.S. Becton-Dickinson.Coompany. NB4, HL-60. rLZ-8 is prepared with IMDM culture medium containing 2% FCS into the preparation of 0.1 μg·ml^−1, 0.5 μg·ml^−1, 2.5 μg·ml^−1, arsenic trioxide (As2O3) 0.5 μg·ml^−1 AnnexinV-FITC kit: combining buffer solution 4×; Propidium iodide solution (PI), 20 μg·ml−1, 0.2 ml; recombinant human Annexin V/FITC, 0.1 ml.
# (§2) Establish NB4 normal control group, positive drug group (As2O3 0.5 μg·ml^−1), protein low-dose group (0.1 μg·ml^−1), medium-dose group (0.5 μg·ml^−1), high-dose group, (2.5 μg·ml^−1); establish HL-60 normal control group, protein low-dose group (0.1 μg·ml^−1), medium-dose group (0.5 μg·ml^−1), high-dose group, (2.5 μg·ml^−1).
# (§3) Mix NB4 and HL-60 cell into 24-orifice plate respectively, 1 ml/hole supply rLZ-8 in different concentrates, set 3-orifice multipunches for each group. Put them in 37° C., 5% CO2 incubator for 24 h, collect the cells of each concentrate, washes the cells twice with pre-cooled PBS 4° C., with 250 μl binding buffer solution re-suspending cells and regulates the cell density to 1×10^6/ml, taking out 100 μl to 5 ml streaming tube, and add 5 μl Annexin V/FITC and 10 μl 20 μg·ml^−1 PI solution, after mixing put it in room temperature and lucifuged hatching 15 min, add 400 μl PBS by flow cytometry analysis.
# [2] = test system: Human Promyelocytic Leukemia NB4 Cells; assay: Killing effect of rLZ-8 on NB4 cells (MTT, OD570nm); assay type: cell-based; details: As2O3 10 μg ml^−1, 48 h
# Experimental: After filtration and degerming, we prepared 8 concentrations using IMDM culture medium which are respectively 0.78 μg·ml^−1, 1.56 μg·ml^−1, 3.125 μg·ml^−1, 6.25 μg·ml^−1, 12.5 μg·ml^−1, 25 μg·ml^−1, 50 μg·ml^−1, 100 μg·ml^−1.
# On 96-orifice culture medium plate, the pilot orifice plus NB4 tumor cells 0.1 ml and rLZ-8 0.1 ml, rLZ-8 concentrates from low to high; negative control group plus NB4 tumor cells and culture medium of 0.1 ml respectively; positive drug control group arsenic trioxide As2O3; make six-aperture multipunches for each group. Placing in 37° C., 5% CO2 incubator 48 h, adding MTT15 μl (5 mg ml^−1) prior to the termination of 4 h, after the termination of cell culture by adding 100 μl 0.1 mol L^−1 hydrochloric acid isopropyl alcohol, testing on the enzyme-linked immunosorbent OD570nm values.
# [3] = test system: NB4; assay: Annexin V-FITC flow cytometry, apoptosis of NB4; assay type: cell-based; details: NB4, As2O3 0.5 μg·ml^−1, 24 h, Annexin V/PI
# Experimental: as §1, §2, §3
# [4] = test system: Human Chronic Myelogenous Leukemia K562 Cells; assay: Lethal effect of rLZ-8 on K562 cells (MTT, OD570nm); assay type: cell-based; details: As2O3 10 μg ml^−1, 48 h
# Experimental: After sterilization of rLZ-8, we prepared 6 concentrations using IMDM culture medium, which are respectively 3.125 μg·ml^−1, 6.25 μb·ml^−1, 12.5 μg·ml^−, 25 μg·ml^−1, 50 μg·ml^−1, 100 μg·ml^−1.
# On 96-orifice culture plate, the pilot aperture plus K562 tumor cells 0.1 ml and rLZ-8 0.1 ml, rLZ-8 concentrations from low to high; negative control group plus K562 tumor cells and culture medium of the 0.1 ml respectively; positive drug control group arsenic trioxide As2O3; make six-aperture multipunches for each group. Placing in 37° C., 5% CO2 incubator 48 h, adding MTT15 μl (5 mg ml^−1) prior to the termination of 4 h, after the termination of cell culture by adding 100 μl 0.1 mol L^−1 hydrochloric acid isopropyl alcohol, testing OD values570nm on the enzyme immunosorbent detector.
# [5] = test system: WBC; assay: Cyclophosphamide low-leucocyte mice model, WBC; assay type: in vivo; design: unit not given here; details: Genlei Scimax 3.2 μg·kg−1
# Experimental: rLZ-8 preparation of sterile saline. Divide them into 5 μg·kg^−1, 2.5 μg√kg^−1, 1.25 μg·kg^−1, 0.62 μg·kg^−1 dose groups.
# Genlei™ Scimax™ [Recombinant human granulocyte colony-stimulating factor injection (rhG-CSF)], production lot: 20060403; 75 μg/vial is prepared with sterile normal saline into the preparation of 3.2 μg·kg^−1, 0.2 ml/vial.
# Cyclophosphamide (CP) for injection (the production lot number 050216; 200 mg/vial) is prepared with sterile normal saline into the preparation of 12.5 mg·kg^−1, 0.2 ml/vial.
# Normal control group, several protein dose groups, positive control group (Genlei™ Scimax™).
# (§4) Excluding the normal control group (given same normal saline), each group of mice were given tail vein injection of cyclophosphamide, 1.25 μg·kg^−1, 0.2 ml/vial, for 3 consecutive days. On 3rd day, rat tail venous blood sampling, sent to Jilin University First Hospital laboratory, cell analyze the number of WBC. After successful modeling, they were given to the above groups respective dose of rLZ-8 and positive drugs (Genlei™ Scimax™) treatment, the normal control group and CP groups were given same normal saline, on the 3rd, 7th and 14th day of the treatment to draw venous blood from mice tail respectively, sent to Jilin University First Hospital testing the numbers of WBC. Compare WBC changes before and after the treatment for analysis of drug efficacy.
# [6] = test system: spleen; assay: Colony forming unit-spleen and spleen index in radiation model of mice; assay type: in vivo; details: Genlei Scimax 3.2 μg·kg^−1
# Experimental: (§5) rLZ-8 preparation of sterile saline. Divide them into 5 ∞g·kg^−1, 2.5 μg·kg^−1, 1.25 μg·kg^−1, 0.62 μg·kg^−1 dose groups. 0.2 ml/vial.
# (§6) Genlei™ Scimax™ [Recombinant human granulocyte colony-stimulating factor injection (rhG-CSF)], production lot: 20060403; 150m/vial is prepared with sterile normal saline into the preparation of 3.2 μg·kg^−1, 0.2 ml/vial.
# (§7) The mice were irradiated by 7.5 Gy γ-ray (180 mV, 15 mA) and then divided into seven groups (n=10): (A) negative control; (B) 5 μg·kg−1 dose; (C) 2.5 μg·kg−1 dose; (D) 1.25 μg·kg−1 dose; (E) 0.62 μg·kg−1 dose; (F) positive control (Genlei™ Scimax™); (G) model group. Together with modeling, mice in each group were administered with Genlei™ Scimax™ and rLZ-8 for 9 days, drew blood from tail, tested the number of WBC, weight spleen, calculated index of spleen.
# [7] = test system: WBC; assay: Cyclophosphamide low-leucocyte rat model, WBC; assay type: in vivo, rats; design: unit not given here; details: Genlei Scimax 9.45 μg·kg−1
# Experimental: rLZ-8 preparation of sterile saline. Divide them into 20 μg·kg^−1, 10 μg·kg^−1, 5 μg·kg^−1, 2.5 μg·kg^−1, 1.25 μg·kg^−1, 0.625 μg·kg^−1, 0.31 μg·kg^−1 dose groups.
# Genlei™ Scimax™ [Recombinant human granulocyte colony-stimulating factor injection (rhG-CSF)], production lot: 20060403; 75 μg/vial is prepared with sterile normal saline into the preparation of 9.45 μg·ml^−1, 0.1 ml/vial.
# Cyclophosphamide (CP), the production lot number 050216; 200 mg/vial is prepared with sterile normal saline into the preparation of 20 mg·ml^−1, 0.1 ml/vial, namely, 49 mg·kg^−1.
# Normal control group, protein low-dose group, protein medium-dose group, protein high-dose group, positive control group (Genlei™ Scimax™)
# as §4, with “rats” for “mice”, “20 mg·ml^−1, 0.1” for “1.25 μg·kg^−1, 0.2”
# [8] = test system: WBC; assay: Prevention of radiation leucopenia model of mice, WBC; assay type: in vivo; design: unit not given here; details: Genlei Scimax 3.2 μg
# Experimental: rLZ-8 preparation of sterile saline. Divide them into 5 μg·kg^−1, 2.5 μg·kg^−1, 1.25 μg·kg^−1, 0.62 μg·kg^−1 dose groups. 0.2 ml/vial.
# Genlei™ Scimax™ [Recombinant human granulocyte colony-stimulating factor injection (rhG-CSF)], production lot: 20060403; 150 μg/vial is prepared with sterile normal saline into the preparation of 3.2 μg·kg^−1, 0.2 ml/vial.
# as §7, with “Before modeling 5 days,” for “Together with modeling,”, “5” for “9”, “days, on the 5th day, mice were radiated, for 5 days, and on the 7th day,” for “days,”
# [9] = test system: WBC; assay: Treatment of radiation leucopenia model of mice, WBC; assay type: in vivo; design: unit not given here; details: Genlei Scimax 3.2 μg·kg^−1; 7.5 Gy γ-ray
# Experimental: as §5, §6, §7
molecule,measurement,setting,value
"arsenic trioxide [As2O3, reference compound]",Apoptosis rate,[1],39.7%
same,Growth inhibition rate (%),[2],72%
same,OD570 nm,[2],0.33 ± 0.01
same,Apoptosis rate,[3],23.4%
same,Growth inhibition rate (%),[4],78.2%
same,OD570 nm,[4],0.22 ± 0.03
B1,"WBC, 3rdday of medication",[5],5.5 ± 0.12
same,"WBC, 7thday of medication",[5],22.7 ± 0.12
same,"WBC, 14thday of medication",[5],13.0 ± 0.19
same,colony forming unit-spleen number,[6],6.0 ± 0.11
same,growth rate,[6],26%
same,index (spleen),[6],0.20 ± 0.10
same,"WBC, 3rdday of medication",[7],1.4 ± 0.11
same,"WBC, 7thday of medication",[7],13.1 ± 0.21
same,"WBC, 14thday of medication",[7],10.3 ± 0.14
same,"WBC, 5th day (rLZ-8)",[8]; 5th day of administration before radiation,21.8 ± 0.35
same,"WBC, 5th day",[8]; after 7.5 Gy γ-ray,0.26 ± 0.20
same,"WBC, 7th day",[8]; after 7.5 Gy γ-ray,0.22 ± 0.12
same,"WBC, 5th day",[9],0.68 ± 0.35
same,"WBC, 7th day",[9],0.58 ± 0.35
same,"WBC, 9th day",[9],0.80 ± 0.11
